According to paper PMC12070071, “The Drosophila pseudokinase Tribbles translocates to the fat body membrane in response to fasting to modulate insulin sensitivity” (Development (Cambridge, England), 2025):
Positions count from the first letter of the chain named.

B1: Drosophila Tribbles (Trbl), wild type, yeast two-hybrid fusion (natural protein, UniProt Q9V3Z1 1-484, looked up)
chain: MDNSSGQNSRTASSASTSKIVNYSSPVSPGVAAATSSSSSSSSSGMSSSQEDTVLGLFTPKKEFPNAKMLQTIREKLMTPGGACDLLALGIAAEPTDQQPVKLIQQRYLISAQPSHISAAVAAKTPASYRHLVDLTASNLRCVDIFTGEQFLCRIVNEPLHKVQRAYFQLQQHDEELRRSTIYGHPLIRPVHDIIPLTKDRTYILIAPVPQERDSTGGVTGVYENLHTYIRHAKRLCETEARAIFHQICQTVQVCHRNGIILRDLKLKRFYFIDEARTKLQYESLEGSMILDGEDDTLSDKIGCPLYTAPELLCPQQTYKGKPADMWSLGVILYTMLVGQYPFYEKANCNLITVIRHGNVQIPLTLSKSVRWLLLSLLRKDYTERMTASHIFLTPWLREQRPFHMYLPVDVEVAEDWSDAEEDEGTAADAMDDDEEGLCPLGDKHEYEDIGVEPLDYTRSTLQMAQNANGLSTEPEPDTDVDMG
notes: Tribbles (Trbl), Drosophila pseudokinase; WT Trbl ORF; One molecule for both two-hybrid copies: each copy carries only one of the two tags; also called WT Trbl; pDEST32-Trbl; source: yeast two-hybrid fusion (MaV203 yeast)
B2: Drosophila Akt, yeast two-hybrid prey (pDEST22-dAkt) (natural protein, UniProt Q8INB9 1-611, looked up)
chain: MNYLPFVLQRRSTVVASAPAPGSASRIPESPTTTGSNIINIIYSQSTHPNSSPTSGSAEKFSWQQSWPSRTSAAPTHDSGTMSINTTFDLSSPSVTSGHALTEQTQVVKEGWLMKRGEHIKNWRQRYFVLHSDGRLMGYRSKPADSASTPSDFLLNNFTVRGCQIMTVDRPKPFTFIIRGLQWTTVIERTFAVESELERQQWTEAIRNVSSRLIDVGEVAMTPSEQTDMTDVDMATIAEDELSEQFSVQGTTCNSSGVKKVTLENFEFLKVLGKGTFGKVILCREKATAKLYAIKILKKEVIIQKDEVAHTLTESRVLKSTNHPFLISLKYSFQTNDRLCFVMQYVNGGELFWHLSHERIFTEDRTRFYGAEIISALGYLHSQGIIYRDLKLENLLLDKDGHIKVADFGLCKEDITYGRTTKTFCGTPEYLAPEVLDDNDYGQAVDWWGTGVVMYEMICGRLPFYNRDHDVLFTLILVEEVKFPRNITDEAKNLLAGLLAKDPKKRLGGGKDDVKEIQAHPFFASINWTDLVLKKIPPPFKPQVTSDTDTRYFDKEFTGESVELTPPDPTGPLGSIAEEPLFPQFSYQGDMASTLGTSSHISTSTSLASMQ
notes: Akt kinase, Drosophila (dAkt); Akt open reading frame amplified from an Akt cDNA (Origene); source: yeast two-hybrid fusion (MaV203 yeast)

Legend:
[1] = target: T1, Drosophila Tribbles activation loop mutant Trbl^SLE/G, yeast two-hybrid bait (Drosophila, UniProt Q9V3Z1 1-484, SLE/G (replacement of E286 with glycine)); test: two-hybrid; MaV203 yeast; bait in pDEST32, prey in pDEST22; colony growth of co-transformants on media with increasing concentrations of 3-AT (His3 reporter); settings: partners not purified
T1 construct: also called pDEST32-Trbl^SLE/G; source: yeast two-hybrid fusion (MaV203 yeast)
T1 sequence (looked up): B1 chain with E286G

[2] = target: B1; test: as above; settings: partners not purified

Binder	highest 3AT concentration with growth [1]	highest 3AT concentration with growth [2]
B1	100 mM 3AT	–
B2	100 mM 3AT	50 mM 3AT
